Measurements from publication PMC3064162.
pKd: −log10 of the molar value.

Biological target: human C3b (human)
Experiment: SPR

(R78G)FH1–4^V62 (from UniProt P08603 19-263) (domain or fragment)
pKd: < 4.46
